Laboratory results published in the supplement of paper PMC12636428.

System: Saccharomyces cerevisiae
Test: transcriptional activation domain activity (GFP:mCherry ratio, weighted mean of sorted bins, harmonized to initial dataset scale) (arbitrary fluorescence ratio units); higher = stronger transcriptional activation
Details: beta-estradiol 1 µM; induction time 4 h
Procedure, shortened: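 Sorting into 8 bins by GFP:mCherry ratio followed a 4-hour hold at 30 °C after cultures were diluted 1:5 into SC with 1 uM beta-estradiol. The yeast diploids carried a GFP reporter and had barcoded protein tiles, fused to an estradiol-inducible synthetic transcription factor, integrated at URA3. Barcodes were then sequenced, and tiles with under 50 reads were removed. Activation activity is the read-weighted mean of bin median fluorescence, averaged across barcodes and linearly mapped onto the initial dataset scale.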

Sequence | transcriptional activation domain activity
CHVLRMYTPYWILFPNDLIQLLKVIPALRCLHILSKGIRIIRWKPLPYLLWED | 51800
INKGTNRFSETVLPPQMAAEQSWSDSNMELEICLDYLHNELEVIKKRQEDFEC | 60200
MQLDGVQLGFVGLTPFFRERHTECPVFILVVGHSCKLLLIMHIILVIHLLDCR | 52900
MLWGNVGTSIKIWYGVFFCYCSIVLFRSSLYIINFFLLCFFFFFVFFLWFFYH | 44400
DDEADGKRRRVQRACDSCRKKKCDVRARVYLCGCSKTPRSASQLLRRARGAHG | 42500
AGKKTVTSEEAEVKVEVEAEVGVEVDIEPAAAKKPAKKTKAKVKTIAEEEVKV | 31900
TLWLLLLCLRCSTSVLALLTLLSCSSFPPFLGFHLSRALWPVLRCPLPSMLCS | 59400
ACFLGYPIQIDPTFTDFELLSSFSGVIDSCAQSDTLWDFNSFDVAAVLSPLLD | 143000
RWQYATLFFSGVSGGATLALSLCVITHPSLLTRIVVVCIFLTLISAFTILPIS | 38500
ACAVLLSVVDGLTPLSIICASCSTTGAYWFCCFSMRFFVFIDLLGTLLLYLII | 74900
GGDSVVDILFSQTSATEFVTVGGTGNVYHWDMEYSFSRNDDDNEDEVRVAAPE | 38300
REGRKKGREAREKRSGGKGGKGGKGKGRATDGAEGAEEGAAAGARQPNGRNAK | 22200
RHAIVVKRVIRMSGKGKMSRMSALVVVGDGKGMVGFGEAKDPNAGKAGRKAFQ | 32800
SASAAAKPAAAPLKKSTSGSLASKPAMSSTKPAAAPAAAPARRASVVPAKSSA | 33900
FSFGLYLLYHSPYWMNVAQLWVNYPHIEFMPGIKKYYLIQMSYWLQQMYFIQI | 48700
ARVLRWCLTMICLTVSALLGRVILFSSAALTLVEILHDDFGFSRNLVLKNLCN | 90400
HKRRRDSVMMDYDLSNFFSSRQLDISKVLNGTEQNNSHVNDDVLTLSFPGETD | 35100
ETAPATEEKPVEETKPAEEAAKTEEEKKEDEAKPIEEGHLNHKAQGLSFPKNL | 55000
HFAGLVILGVFLMFINAIVLWPILKSFHDCKHLIKVWFFWMIYCLLFVLYIFC | 72600
ETCGRCRGQGVVIQKAQLAPGIFQQMQMQCDQCGGQGTQIKHRCKVCGGARVV | 52100
MFKGSFFFSLTGFLFSLLFLFFYPLPCWGRDHFFCWGLECLFSLFLSWVLFTV | 41100

Sequence | transcriptional activation domain activity
CFFLFYIIHLPLLFIHITKSMYVLIVSRFVSSFPVSVGWAVGRAHGFGPLFAQ | 51900
MAIFRIYVLIAVVRLGDILTDIYVVGGVLLLLRYQVFLMFFHFFFFLFFYTGL | 43700
MLSHLVVSTPHCSIMFGPSMDWTRVFAFFLLLRFSLHWISNNCFVSPLLLLCY | 69800
MSLKEKLSIIHMKIRHRIEMTILLLHIFSIPLCLSFFMLCCSFPFFWPFVILY | 77600
LSPHLPPHLPPRLYFAIDSDLFLLLLLPPFDICFYLSSLLVLIFFIYLLLEVH | 30600
GRSESQSANNNGNNARGGKTGGGEAAAGGKTSASRGPRGGRGAKNKGSGGSKG | 28700
LRLVIENIQKYGNLVCLTCHDFRRKDLLLGVGLYFLIPCFLWVALSIELVAAR | 63600
VDFVKHLISCFSVVGEDNFACTLKGFGWMYLTHVYFFFNVFVALNLQLIILLS | 60000
MGDCIKAHVFLLTFFYLYIHTHIFLFLFFIFLPFLLFSASSIYILFSFLFFPA | 32300
WSVMSCLYLVVRYFGIFLALLCGFWGGLLYIPESVSYGLIVLIEWGFSVYFWF | 41400
SSGGDSGGDDTTTTTKKSRPRHHHLAHHHLHHLHHLHYLHHFHHHTHQHDDHL | 22900
TMHLNVVFISVVVNGFCSEHGFVSMRLWAVYKSLSLVLWMSFFIVLCWVGMIV | 53600
KSVSRLHAKIEYDQEEDRFVLLVVGRNGAWVDGVWSASGTRACLGERSQIQIA | 42000
MHSMRHAPSSFFLLFRPVIVFMAVVFSNFYLLPLLFSLLYVILCFFLYILFVS | 34600
LIHFFRLYRSGHGPIRMFFLHIQALYNLFNLIFSWFALANLWLTFSIIIRLVP | 70000
AAAGAADEAKTSSSPNGTKEAAVASSGGEKPAAAGVAGAPNSQSQTGAQPTKK | 28700
KGIAGLGPTKTIGLFVVLYIATAIFVFVYIVMQFLLVFGTLTERWPAGHLAFC | 52200
PDEDEVVENAEKPKRRRRAKPTEEEQNEEQQNEEDAVENAGKKKRGKRTKPTE | 39900
SVYCLLLILFIPYPFSDVFAKCKHASLEGLACGDFPHNQLSIYLAAILCLLIA | 49800
AEAQEGRKKDAAAAAEKKEEESPKKEEESAAGEEKQAAPKKKPKKLERRGGAA | 41300
DIFGQMKDFTERCHMYLDGNITLPISLHQKLVEIFSHLLCLIGMITRDMKRGW | 32500

Sequence | transcriptional activation domain activity
VLLVVMFFGVLHKRNATHLWNLLYFQGLFWILAATMTELPSVVCLPYSPPLRC | 57400
IMYSVIVSLLLFLFLLVLLRRYLVSLYYFTSLFLSPRLCARIAIVFRICLLYI | 50300
MNAQQLSGTRHKKEIKRRTKTGCLTCRKRRIKCDEGHPTCRNCQKSKRECLGY | 38600
DNDDDGETAAGGRLAHLLQILVCNAIYSFEPLLNCSQDVNNVLVVVTRYYGGI | 57500
KFVDLGIFKAEGTRLRCRMCGFLIASLVLCMHMSQACPMYPRYPSSNMHEHPD | 29300
LVMAHYLYANACAKGEHLIVTTWDMYYEKWGFMLIFWNMAGVPLSYCHCTLYL | 65300
LKLLVCVLWCLDTFDFILNCNLLYLFLVTNYMNPLILIKRPPWSLVLHVAVTV | 53400
TLAPNGSSNLVHLFAAHSIGKVRSSLLSSLNRKFSSNPSSPCSYFLIFQLFTR | 61100
GNATAGAGAGQAGEAKGKGKAKAKAKGKEKKGKGKAKGKANGKNNQGAAAGGA | 46300
GYRIVKMLGTVYGITVRSRNWAAGLGMVLKSVVGGELRWFTNLLYTARNDAIG | 48300
MTVDHDFNSEDILFPIESMSSIQYVENNNPNNINNDVIPYSLDIKNTVLDSAD | 76400
NVLLLGLLGWLIRLVHNSEPTLVLKKLCSTLVTYFTRQSFRWRRCIKHLVCAF | 39900
ACVALVVLFADSLDDLIPGWGIVAWKIVCGFILVPLGFLPLRLLSFTSILGVM | 58500
SNYCWQMSVLPRARISIFRAEVKERCVVTVALLFSVYDPIAIVDLVKKLETDF | 27500
EGGEGGDGAGGDGAAAGGKDGEGGKGGGKEEKGGKAGKDAKGGAKKPGSGKKG | 16500
NTVWLILNDITIGIAFGTFLCENHLILAAYVNYTIEKLLIKEIQWILGWLDSW | 84200
VSFFFFLSFFFPPFFFFSLSFLLSFFLSFLLPFPFFLSFFPFFPGCAAPSRSN | 32200
TAATVPSATRAVVSATCRATALRVRSATTAAVTTTSPATARLPARPAPATTAS | 34000
MNGLWCRDDILFYISFVLILFSSFSIFLLLLDRLRFLFSFLFFFFFWCFVFIV | 45800
MGGVVWCFYRVFLFPFLLSPIIPSLLLSSLHTFPLSLTFTFTFILCRMFYVCT | 53500
EKEARHAGRESRKAPEVREHRSSRRKDKERERSARPDNERRKTHVDGEDPEER | 23800

Sequence | transcriptional activation domain activity
KKKRDNRREKPRKSRKGRSDDEIREGEEGESRRRKRKEGGGRARAATPQEENE | 32800
DDPDVEESDDEPVELWVARGEDRCDACKQRNIRVCEPQWGAPRSSACKTCARK | 31700
KEVKEGEEGEKPKRGRKRKEAPAENGEKEPAAKKAKLASKAAPGSKPASKAAS | 28300
LSLLVLGCWIPCIVVMEGYLRSLTFESFPYPGLYCFTSQGSHIVYLCWVLVAV | 46200
RRRWINSTVHNLCELIILPELFGFCCFSMRFFVFLDLLGTLILPATVVYLVYL | 51600
APAAEPVAAATIEEAPKETAEASTATEETAEEKKEEKEKKEKEKKAKLGRRLS | 30700
VNDIYDSSRSRACNACRNSKVRCEQPRPDHPCKRCAKARRECVSSTRGHKRRR | < 6570
GLCRSGELLLPGAQYHRNPAVRKAWPGIFKWTRRNAMDVIATVWFWLTRADGL | 51100
VLSSSLCFPLPPLSPPFLPSLCFPLPPFFPFPPFPLFPPFLPFPLFPLCFPLP | 48300
MCVHVCLMFCSLLLSLSPFFFFHDLFLFLYTFSFSLSCFTPSYFSMFSSIPSS | 76200
KSKQKERERKRARAKANEKAKAEARKRKTKDGEKKEKRKQKEREKAKGKGKER | 55000
ARKAFLLIEHMLELEGPPLIWNLLEILHNIMHLKQGRLFNMLIIHLMSLARSH | 67400
MEHFSLFLFRFFFLFFVFLFLRRRGGGFGTGFGFWFLVFGFWFLVFGFWFWLW | 64000
MAGENGGLGAFRDGSADGVGRGADLVSSLEQTRGYQMEMFQESLRRNIIVAMD | 62800
MCYIIIVRWKRVWISCSCLAVIPVCPSIIPLLSILILSSLFFPFNPIFPIHGI | 34100
MGLWARFICFVIPLFFHYFPLFSFSFLLNIFPHYIYFFPTFYKSGPLFLCFFM | 50500
WIVTHSHFIPTAEAGTTGEGMGEGEDRDPDTVRLAVRSLTICMRSANIAMLVG | 53600
YRHLKPIMISSPVFCYLQLLGLIMCYLSLLVKVGKPSPSICISRQFLLPMGFV | 43200
MFTRYLLLLLFAPLIYILGFFAASLSTHQPDYFYTWTRDSALVAQTNDTLLHD | 30900
AAAAAAAASNSYAIPENELLDEDTMNFISSLKNDLSNISNSLPFEYPHEIAEA | 123000
